The values below come from PMC12234955 (Nature Communications, 2025).

The target of assay [1] is LGR4-ECD (LGR4 ectodomain) (human, UniProt Q9BXB1). Briefly: BLI. (In BLI a coated tip is dipped into the sample, and binding shifts an interference pattern.)
Assay [2] has as its target T1, Norrin-Fc (human Norrin K25-S133, HRV 3C site, human IgG1 Fc, C-terminal FLAG) (human), Q00604.
T1 chain: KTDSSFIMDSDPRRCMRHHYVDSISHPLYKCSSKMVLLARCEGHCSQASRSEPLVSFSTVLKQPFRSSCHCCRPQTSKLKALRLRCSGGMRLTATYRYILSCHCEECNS
Put plainly: cryo-EM structure. The settings on record: remark: other sources report otherwise.

Assay [3] has as its target Human LGR4 (residues A25-Q833), C-terminal Flag tag (human, UniProt Q9BXB1 25-833). Put plainly: cryo-EM structure.

B1: NB18 (VHH)
VHH: QVQLQESGGGSVQAGGSLRLSCAASGYTYSRTCMAWFRQAPGKEREGIATINSDGTTTYADSVKGRFTISRDNAKNTLSLQMNSLKPEDTAMYYCAAASLSTRGCSRAEWEYRYWGQGTQVTVSS
In assay [1], B1 registered a Kd of 0.15 nM.

B2: Norrin-Fc (human Norrin K25-S133, HRV 3C site, human IgG1 Fc, C-terminal FLAG), Q00604 25-133 (Fc fusion)
chain: T1 chain
In turn, B2 gave a stoichiometry N in assay [2] of 2.

B3: Norrin-Fc (human Norrin K25-S133, HRV 3C site, human IgG1 Fc, C-terminal FLAG) (Fc fusion)
chain: T1 chain
Turning to B3, in assay [3], the “stoichiometry N” value is 1 Norrin chains per LGR4 (2:2).

By Kd is commonly meant the constant that tells how readily two partners part at equilibrium. By stoichiometry N is commonly meant a count of units in the complex or per binding partner.
